According to article PMC13397619:

B1: NLV3 TCR beta chain (CDR3β only) (parent)
chain: ASSPTGGSPSPLH
partner: MLVPMVATV

Variants of: B1
Experiment: T-Switch: Jurkat TCRβ−/− cells expressing a CDR3 saturation-mutagenesis library, stained with two peptide-HLA-A*02:01 tetramers (original and novel peptide) plus anti-CD3, FACS-sorted into four gates, gDNA sequenced
Conditions: with HLA-A*02:01 with peptide … (NLV 3-1, the original bait), tetramers 1 µg/mL, 30 min on ice, DP and SW gates expanded about 10 days between rounds ('two to three rounds of selection' in the Methods), gate SP: higher = more of the variant in the gate that binds the original peptide and not the novel one = retained original binding. Fold enrichment of the CDR3 variant in one FACS gate of a two-tetra, unresolved parent, parent is a CDR3 fragment, scale: fold enrichment, numbering: sequential-on-construct, sequence …

Row | Variant | enrichment
1 | […] (CDR3 as printed); G7E derived by comparing it with the table's wild-type CDR3 ASSPTGGSPSPLH | 0.336
2 | […] (CDR3 as printed); G6V derived by comparing it with the table's wild-type CDR3 ASSPTGGSPSPLH | 0
3 | […] (CDR3 as printed); L12C derived by comparing it with the table's wild-type CDR3 ASSPTGGSPSPLH | 4.3
4 | […] (CDR3 as printed); G7A derived by comparing it with the table's wild-type CDR3 ASSPTGGSPSPLH | 0
5 | […] (CDR3 as printed); H13Y derived by comparing it with the table's wild-type CDR3 ASSPTGGSPSPLH | 6.69
6 | […] (CDR3 as printed); H13E derived by comparing it with the table's wild-type CDR3 ASSPTGGSPSPLH | 4.01
7 | […] (CDR3 as printed); G7M derived by comparing it with the table's wild-type CDR3 ASSPTGGSPSPLH | 0
8 | […] (CDR3 as printed); H13L derived by comparing it with the table's wild-type CDR3 ASSPTGGSPSPLH | 5.69
9 | […] (CDR3 as printed); L12D derived by comparing it with the table's wild-type CDR3 ASSPTGGSPSPLH | 0
10 | […] (CDR3 as printed); L12G derived by comparing it with the table's wild-type CDR3 ASSPTGGSPSPLH | 0
11 | […] (CDR3 as printed); G7D derived by comparing it with the table's wild-type CDR3 ASSPTGGSPSPLH | 0
12 | […] (CDR3 as printed); A1N derived by comparing it with the table's wild-type CDR3 ASSPTGGSPSPLH | 0
13 | […] (CDR3 as printed); G6F derived by comparing it with the table's wild-type CDR3 ASSPTGGSPSPLH | 0
14 | […] (CDR3 as printed); A1P derived by comparing it with the table's wild-type CDR3 ASSPTGGSPSPLH | 0
15 | […] (CDR3 as printed); G7Y derived by comparing it with the table's wild-type CDR3 ASSPTGGSPSPLH | 4.27
16 | […] (CDR3 as printed); A1H derived by comparing it with the table's wild-type CDR3 ASSPTGGSPSPLH | 0
17 | […] (CDR3 as printed); A1Q derived by comparing it with the table's wild-type CDR3 ASSPTGGSPSPLH | 0
18 | […] (CDR3 as printed); G6Y derived by comparing it with the table's wild-type CDR3 ASSPTGGSPSPLH | 0
19 | […] (CDR3 as printed); G6R derived by comparing it with the table's wild-type CDR3 ASSPTGGSPSPLH | 0
20 | […] (CDR3 as printed); A1W derived by comparing it with the table's wild-type CDR3 ASSPTGGSPSPLH | 0
21 | […] (CDR3 as printed); G6N derived by comparing it with the table's wild-type CDR3 ASSPTGGSPSPLH | 0

Row | Variant | enrichment
22 | […] (CDR3 as printed); G7Q derived by comparing it with the table's wild-type CDR3 ASSPTGGSPSPLH | 0
23 | […] (CDR3 as printed); G6L derived by comparing it with the table's wild-type CDR3 ASSPTGGSPSPLH | 0
24 | […] (CDR3 as printed); H13W derived by comparing it with the table's wild-type CDR3 ASSPTGGSPSPLH | 8.46
25 | […] (CDR3 as printed); L12A derived by comparing it with the table's wild-type CDR3 ASSPTGGSPSPLH | 0
26 | […] (CDR3 as printed); G7C derived by comparing it with the table's wild-type CDR3 ASSPTGGSPSPLH | 0
27 | […] (CDR3 as printed); A1C derived by comparing it with the table's wild-type CDR3 ASSPTGGSPSPLH | 1.12
28 | […] (CDR3 as printed); G6T derived by comparing it with the table's wild-type CDR3 ASSPTGGSPSPLH | 0.64
29 | […] (CDR3 as printed); L12F derived by comparing it with the table's wild-type CDR3 ASSPTGGSPSPLH | 0
30 | […] (CDR3 as printed); A1K derived by comparing it with the table's wild-type CDR3 ASSPTGGSPSPLH | 0
31 | […] (CDR3 as printed); H13P derived by comparing it with the table's wild-type CDR3 ASSPTGGSPSPLH | 0
32 | […] (CDR3 as printed); G6M derived by comparing it with the table's wild-type CDR3 ASSPTGGSPSPLH | 0
33 | […] (CDR3 as printed); G7V derived by comparing it with the table's wild-type CDR3 ASSPTGGSPSPLH | 0
34 | […] (CDR3 as printed); H13R derived by comparing it with the table's wild-type CDR3 ASSPTGGSPSPLH | 4.99
35 | […] (CDR3 as printed); G7H derived by comparing it with the table's wild-type CDR3 ASSPTGGSPSPLH | 0
36 | […] (CDR3 as printed); G7T derived by comparing it with the table's wild-type CDR3 ASSPTGGSPSPLH | 0
37 | […] (CDR3 as printed); G6C derived by comparing it with the table's wild-type CDR3 ASSPTGGSPSPLH | 0
38 | […] (CDR3 as printed); G7I derived by comparing it with the table's wild-type CDR3 ASSPTGGSPSPLH | 0
39 | […] (CDR3 as printed); A1M derived by comparing it with the table's wild-type CDR3 ASSPTGGSPSPLH | 0
40 | […] (CDR3 as printed); A1T derived by comparing it with the table's wild-type CDR3 ASSPTGGSPSPLH | 0
41 | […] (CDR3 as printed); G7K derived by comparing it with the table's wild-type CDR3 ASSPTGGSPSPLH | 0
42 | […] (CDR3 as printed); A1I derived by comparing it with the table's wild-type CDR3 ASSPTGGSPSPLH | 0
